Source: patent publication US20220403041A1 (Sanofi, published 2022)
One block for each binder: values may come before it.

Assays:
[1] = target: T1, human CD73 on COR-L23 lung carcinoma cells (human) (UniProt P21589)
T1 sequence: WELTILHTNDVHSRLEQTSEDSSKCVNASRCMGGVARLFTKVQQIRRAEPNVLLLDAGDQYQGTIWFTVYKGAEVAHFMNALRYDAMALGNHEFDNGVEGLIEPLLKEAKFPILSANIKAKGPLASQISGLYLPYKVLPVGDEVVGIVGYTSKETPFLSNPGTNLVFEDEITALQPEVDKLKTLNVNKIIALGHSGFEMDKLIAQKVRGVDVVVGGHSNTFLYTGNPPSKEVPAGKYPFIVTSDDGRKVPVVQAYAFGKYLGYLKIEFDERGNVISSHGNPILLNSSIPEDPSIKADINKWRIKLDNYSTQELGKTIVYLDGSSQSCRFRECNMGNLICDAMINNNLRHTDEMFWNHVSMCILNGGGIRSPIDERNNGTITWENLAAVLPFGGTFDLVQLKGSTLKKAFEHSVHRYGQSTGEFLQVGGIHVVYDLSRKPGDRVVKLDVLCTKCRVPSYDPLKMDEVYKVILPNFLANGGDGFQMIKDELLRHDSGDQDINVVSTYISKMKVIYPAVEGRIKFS

[2] = target: T1, human CD73 on COR-L23 lung carcinoma cells (human); experiment: cell-based or functional assay
soluble CD73 dimer [3] = target: T2, soluble CD73 dimer (human, UniProt P21589 27-549, limits assumed); experiment: SPR dissociation kinetics
T2 construct: CD73 in the flow (SPR) or in solution (BLI binning); also called soluble human CD73
T2 sequence: T1 sequence

soluble CD73 dimer [4] = target: T2, soluble CD73 dimer; experiment: SPR, antibody captured on Protein A chip, CD73 in flow; Langmuir 1:1 fit
soluble CD73 dimer [5] = target: T2, soluble CD73 dimer; experiment: SPR, antibody captured on Protein A chip, CD73 in flow; biphasic fit, component of abundance 9%
soluble CD73 dimer [6] = target: T2, soluble CD73 dimer; experiment: SPR, antibody captured on Protein A chip, CD73 in flow; biphasic fit, component of abundance 43%
soluble CD73 dimer [7] = target: T2, soluble CD73 dimer; experiment: SPR, antibody captured on Protein A chip, CD73 in flow; biphasic fit, component of abundance 57%
soluble CD73 dimer [8] = target: T2, soluble CD73 dimer; experiment: SPR, antibody captured on Protein A chip, CD73 in flow; biphasic fit, component of abundance 91%
soluble CD73 dimer [9] = target: T2, soluble CD73 dimer; experiment: SPR, antibody captured on Protein A chip, CD73 in flow; Langmuir ka with major component kd
soluble CD73 dimer [10] = target: T2, soluble CD73 dimer; experiment: SPR, antibody captured on chip, CD73 in flow; biphasic fit, share by T0 intercept of the component with kd 1.28E-04 1/s
soluble CD73 dimer [11] = target: T2, soluble CD73 dimer; experiment: SPR, antibody captured on chip, CD73 in flow; biphasic fit, share by T0 intercept of the component with kd 4.06E-03 1/s
soluble CD73 dimer [12] = target: T2, soluble CD73 dimer; experiment: SPR, antibody captured on chip, CD73 in flow; biphasic fit, share after 300 s binding phase of the component with ka 1.58E+05 1/Ms
soluble CD73 dimer [13] = target: T2, soluble CD73 dimer; experiment: SPR, antibody captured on chip, CD73 in flow; biphasic fit, share after 300 s binding phase of the component with ka 8.50E+05 1/Ms
soluble CD73 dimer [14] = target: T2, soluble CD73 dimer; experiment: SPR, antibody captured on Protein A chip, CD73 in flow; biphasic fit, component of abundance 45%
soluble CD73 dimer [15] = target: T2, soluble CD73 dimer; experiment: SPR, antibody captured on Protein A chip, CD73 in flow; biphasic fit, component of abundance 55%
soluble CD73 dimer [16] = target: T2, soluble CD73 dimer; experiment: SPR, antibody captured on Protein A chip, CD73 in flow; biphasic fit, component of abundance 100%
soluble CD73 dimer [17] = target: T2, soluble CD73 dimer; experiment: SPR, antibody captured on chip, CD73 in flow; biphasic fit, share by T0 intercept of the component with kd 2.46E-04 1/s
soluble CD73 dimer [18] = target: T2, soluble CD73 dimer; experiment: SPR, antibody captured on chip, CD73 in flow; biphasic fit, share after 300 s binding phase of the component with ka 5.31E+06 1/Ms
soluble CD73 dimer [19] = target: T2, soluble CD73 dimer; experiment: SPR, antibody captured on chip, CD73 in flow; biphasic fit, share after 300 s binding phase of the component with ka 7.03E+05 1/Ms
[20] = target: T3, human CD73 on COR-L23 lung carcinoma cells (human, UniProt P21589 27-549); experiment: cell-based or functional assay
T3 sequence: T1 sequence

soluble CD73 dimer [21] = target: T2, soluble CD73 dimer; experiment: SPR, antibody on the solid support, soluble CD73 dimer in solution
soluble CD73 dimer [22] = target: T2, soluble CD73 dimer; experiment: SPR; KD from Langmuir ka and kd of the principal dissociation component
soluble CD73 dimer [23] = target: T2, soluble CD73 dimer; experiment: SPR, antibody captured on Protein A chip, CD73 in flow; biphasic fit, component of abundance 14%
soluble CD73 dimer [24] = target: T2, soluble CD73 dimer; experiment: SPR, antibody captured on Protein A chip, CD73 in flow; biphasic fit, component of abundance 30%
soluble CD73 dimer [25] = target: T2, soluble CD73 dimer; experiment: SPR, antibody captured on Protein A chip, CD73 in flow; biphasic fit, component of abundance 70%
soluble CD73 dimer [26] = target: T2, soluble CD73 dimer; experiment: SPR, antibody captured on Protein A chip, CD73 in flow; biphasic fit, component of abundance 86%
soluble CD73 dimer [27] = target: T2, soluble CD73 dimer; experiment: SPR, antibody captured on chip, CD73 in flow; biphasic fit, share by T0 intercept of the component with kd 7.06E-03 1/s
soluble CD73 dimer [28] = target: T2, soluble CD73 dimer; experiment: SPR, antibody captured on chip, CD73 in flow; biphasic fit, share by T0 intercept of the component with kd 7.86E-05 1/s
soluble CD73 dimer [29] = target: T2, soluble CD73 dimer; experiment: SPR, antibody captured on chip, CD73 in flow; biphasic fit, share after 300 s binding phase of the component with ka 1.50E+06 1/Ms
soluble CD73 dimer [30] = target: T2, soluble CD73 dimer; experiment: SPR, antibody captured on chip, CD73 in flow; biphasic fit, share after 300 s binding phase of the component with ka 3.24E+05 1/Ms

B2: TB19/H7 (bispecific antibody, part only; not given: H7 arm; constant regions, V domains shown, part only)
VH: QEQLQESGPGLVKPSETLSLTCTVSGGSIRNNYYNWIRQPAGKGLEWIGRIYISGTTNSNPSLKSRVTMSIDTSKNQFSLKLSSVTAADTAIYYCAREHYVSGTSLDNWGQGTLVTVSS
VL: EIVMTQSPTTLSLSPGERATLSCRASQSVNTNYFSWYQQKPGLTPRLLIYGTSTRATGIPARFSGSGSGTDFTLTISSLQPEDFGIYYCQQDYNLPYTFGQGTYLEIK
% inhibition of CD73 activity at 1 µg/ml antibody (COR-L23 cells, 4 h, LC/MS); cell TB19 x H7 [1]: 93% | EC50 (nM) of inhibition of CD73 activity (adenosine by LC/MS) [2]: 0.27 nM | Max Inhib. (projected maximal inhibition at saturating antibody) [2]: 95% | koff (soluble CD73 dimer [4]): 0.000149 s⁻¹ | kon (soluble CD73 dimer [4]): 752000 M⁻¹ s⁻¹ | kon (soluble CD73 dimer [14]): 5.31e+06 M⁻¹ s⁻¹ | kon (soluble CD73 dimer [15]): 703000 M⁻¹ s⁻¹ | koff (soluble CD73 dimer [16]): 0.000246 s⁻¹ | Kd (soluble CD73 dimer [9]): 0.328 nM | abundance of dissociation component (biphasic fit) (soluble CD73 dimer [17]): 100% | abundance of association component (biphasic fit) (soluble CD73 dimer [18]): 45% | abundance of association component (biphasic fit) (soluble CD73 dimer [19]): 55%

B4: CL25/TB19 (bispecific antibody, part only; not given: CL25 arm; constant regions, V domains shown, part only)
VH: B2 VH
VL: B2 VL
EC50 (nM) of inhibition of CD73 activity (adenosine by LC/MS) [2]: 0.619 nM | Max Inhib. (projected maximal inhibition at saturating antibody) [2]: 97% | fold more stable (kd of the principal component) than with either monovalent parental (soluble CD73 dimer [3]): 8.8 fold | fold lower KD than either parental antibody (soluble CD73 dimer [21]): 15 fold | fold increase of apparent affinity (KD) over either monovalent parental antibody (soluble CD73 dimer [22]): 26 fold | koff (soluble CD73 dimer [4]): 0.00013 s⁻¹ | kon (soluble CD73 dimer [4]): 493000 M⁻¹ s⁻¹ | koff (soluble CD73 dimer [23]): 0.00706 s⁻¹ | kon (soluble CD73 dimer [24]): 1.5e+06 M⁻¹ s⁻¹ | kon (soluble CD73 dimer [25]): 324000 M⁻¹ s⁻¹ | koff (soluble CD73 dimer [26]): 7.86e-05 s⁻¹ | Kd (soluble CD73 dimer [9]): 0.16 nM | abundance of dissociation component (biphasic fit) (soluble CD73 dimer [27]): 14% | abundance of dissociation component (biphasic fit) (soluble CD73 dimer [28]): 86% | abundance of association component (biphasic fit) (soluble CD73 dimer [29]): 30% | abundance of association component (biphasic fit) (soluble CD73 dimer [30]): 70%

More lines, now with the values ahead:

% inhibition of CD73 activity at 1 µg/ml antibody (COR-L23 cells, 4 h, LC/MS); cell E3.2 x TB19 [1]: 95% | EC50 (nM) of inhibition of CD73 activity (adenosine by LC/MS) [2]: 0.443 nM | Max Inhib. (projected maximal inhibition at saturating antibody) [2]: 97% | inhibition of CD73 enzymatic activity on COR-L23 cells at 1 µg/mL [2]: > 95% | fold more stable (kd of the principal component) than with either monovalent parental (soluble CD73 dimer [3]): 5.4 fold | koff (soluble CD73 dimer [4]): 0.000164 s⁻¹ | kon (soluble CD73 dimer [4]): 364000 M⁻¹ s⁻¹ | koff (soluble CD73 dimer [5]): 0.00406 s⁻¹ | kon (soluble CD73 dimer [6]): 850000 M⁻¹ s⁻¹ | kon (soluble CD73 dimer [7]): 158000 M⁻¹ s⁻¹ | koff (soluble CD73 dimer [8]): 0.000128 s⁻¹ | Kd (soluble CD73 dimer [9]): 0.352 nM | abundance of dissociation component (biphasic fit) (soluble CD73 dimer [10]): 91% | abundance of dissociation component (biphasic fit) (soluble CD73 dimer [11]): 9% | abundance of association component (biphasic fit) (soluble CD73 dimer [12]): 57% | abundance of association component (biphasic fit) (soluble CD73 dimer [13]): 43%
B1: E3.2/TB19 (bispecific antibody, part only; not given: E3.2 arm; constant regions, V domains shown, part only)
VH: B2 VH
VL: B2 VL

EC50 (nM) of inhibition of CD73 activity (adenosine by LC/MS) [20]: 0.777 nM | koff (soluble CD73 dimer [4]): 0.000102 s⁻¹ | kon (soluble CD73 dimer [4]): 184000 M⁻¹ s⁻¹ | Kd (soluble CD73 dimer [9]): 0.555 nM
B3: TB19/TB38 (bispecific antibody, V domains shown)
VH 1: B2 VH
VL 1: B2 VL
VH 2: QVQLVESGGGVVQPGRSLRLSCAASGFTFSSYGMHWVRQAPGKGLEWVAVFWYDGSNKYYADSVKGRFTISRDNSKNTLYLQMNSLSAEDTAVYYCARAPNWDDAFDIWGQGTMVTVSS
VL 2: QTVVTQEPSFSVSPGGTVTLTCGLSSGSVSTSYYPNWYQQTPGQAPRTLIYSTNTRSSGVPDRFSGSILGNKAALTITGAQADDESDYYCVLFMGSGIWVFGGGTKLTVL
notes: Biparatopic human IgG1 made by Fab-arm exchange; also called TB19/TB38 biparatopic antibody
